Laboratory results published in patent US20240287161A1 (NATIONAL UNIVERSITY CORPORATION TOTTORI UNIVERSITY, published 2024).

Columns and labels:
[1] = target: T1, HCoV-229E trimeric S protein (amino acids 12-1109) with T4 foldon, histidine tag and strep-tag (HCoV-229E, UniProt P15423 12-1112); test: ELISA on coated S-trimeric antigen, anti-human IgG-HRP [Human IgG3, NT-193]
T1 chain: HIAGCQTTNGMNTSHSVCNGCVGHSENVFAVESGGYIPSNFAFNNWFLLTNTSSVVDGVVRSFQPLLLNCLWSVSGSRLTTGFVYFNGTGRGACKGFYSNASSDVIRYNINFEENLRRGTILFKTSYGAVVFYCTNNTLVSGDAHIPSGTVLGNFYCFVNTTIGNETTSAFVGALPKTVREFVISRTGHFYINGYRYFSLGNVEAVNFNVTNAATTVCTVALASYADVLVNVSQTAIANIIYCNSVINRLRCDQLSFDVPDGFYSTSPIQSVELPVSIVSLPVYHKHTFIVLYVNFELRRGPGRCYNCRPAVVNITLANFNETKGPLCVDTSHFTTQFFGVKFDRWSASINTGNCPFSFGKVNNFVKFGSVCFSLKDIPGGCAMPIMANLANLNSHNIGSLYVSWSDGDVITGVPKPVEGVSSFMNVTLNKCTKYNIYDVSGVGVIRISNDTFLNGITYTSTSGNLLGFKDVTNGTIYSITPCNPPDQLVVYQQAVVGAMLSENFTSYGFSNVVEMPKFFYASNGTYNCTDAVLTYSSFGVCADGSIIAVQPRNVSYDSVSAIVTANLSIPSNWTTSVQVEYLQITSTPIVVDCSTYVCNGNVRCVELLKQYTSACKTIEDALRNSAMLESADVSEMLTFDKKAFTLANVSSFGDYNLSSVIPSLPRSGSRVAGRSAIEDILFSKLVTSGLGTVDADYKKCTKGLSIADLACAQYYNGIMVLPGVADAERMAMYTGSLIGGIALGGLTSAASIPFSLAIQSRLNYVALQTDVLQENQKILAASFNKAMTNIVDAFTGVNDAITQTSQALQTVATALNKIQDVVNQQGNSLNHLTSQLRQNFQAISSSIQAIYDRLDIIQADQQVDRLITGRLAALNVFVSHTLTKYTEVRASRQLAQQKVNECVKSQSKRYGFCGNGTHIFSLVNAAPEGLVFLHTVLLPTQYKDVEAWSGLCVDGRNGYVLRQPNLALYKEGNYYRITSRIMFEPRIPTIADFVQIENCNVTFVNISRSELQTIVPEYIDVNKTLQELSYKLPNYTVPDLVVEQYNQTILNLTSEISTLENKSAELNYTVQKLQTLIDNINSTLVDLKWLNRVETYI

[2] = target: T2, HCoV-HKU1 trimeric S protein (amino acids 13-1293) with T4 foldon, histidine tag and strep-tag (HCoV-HKU1, UniProt Q5MQD0 13-1297); test: as above
T2 sequence: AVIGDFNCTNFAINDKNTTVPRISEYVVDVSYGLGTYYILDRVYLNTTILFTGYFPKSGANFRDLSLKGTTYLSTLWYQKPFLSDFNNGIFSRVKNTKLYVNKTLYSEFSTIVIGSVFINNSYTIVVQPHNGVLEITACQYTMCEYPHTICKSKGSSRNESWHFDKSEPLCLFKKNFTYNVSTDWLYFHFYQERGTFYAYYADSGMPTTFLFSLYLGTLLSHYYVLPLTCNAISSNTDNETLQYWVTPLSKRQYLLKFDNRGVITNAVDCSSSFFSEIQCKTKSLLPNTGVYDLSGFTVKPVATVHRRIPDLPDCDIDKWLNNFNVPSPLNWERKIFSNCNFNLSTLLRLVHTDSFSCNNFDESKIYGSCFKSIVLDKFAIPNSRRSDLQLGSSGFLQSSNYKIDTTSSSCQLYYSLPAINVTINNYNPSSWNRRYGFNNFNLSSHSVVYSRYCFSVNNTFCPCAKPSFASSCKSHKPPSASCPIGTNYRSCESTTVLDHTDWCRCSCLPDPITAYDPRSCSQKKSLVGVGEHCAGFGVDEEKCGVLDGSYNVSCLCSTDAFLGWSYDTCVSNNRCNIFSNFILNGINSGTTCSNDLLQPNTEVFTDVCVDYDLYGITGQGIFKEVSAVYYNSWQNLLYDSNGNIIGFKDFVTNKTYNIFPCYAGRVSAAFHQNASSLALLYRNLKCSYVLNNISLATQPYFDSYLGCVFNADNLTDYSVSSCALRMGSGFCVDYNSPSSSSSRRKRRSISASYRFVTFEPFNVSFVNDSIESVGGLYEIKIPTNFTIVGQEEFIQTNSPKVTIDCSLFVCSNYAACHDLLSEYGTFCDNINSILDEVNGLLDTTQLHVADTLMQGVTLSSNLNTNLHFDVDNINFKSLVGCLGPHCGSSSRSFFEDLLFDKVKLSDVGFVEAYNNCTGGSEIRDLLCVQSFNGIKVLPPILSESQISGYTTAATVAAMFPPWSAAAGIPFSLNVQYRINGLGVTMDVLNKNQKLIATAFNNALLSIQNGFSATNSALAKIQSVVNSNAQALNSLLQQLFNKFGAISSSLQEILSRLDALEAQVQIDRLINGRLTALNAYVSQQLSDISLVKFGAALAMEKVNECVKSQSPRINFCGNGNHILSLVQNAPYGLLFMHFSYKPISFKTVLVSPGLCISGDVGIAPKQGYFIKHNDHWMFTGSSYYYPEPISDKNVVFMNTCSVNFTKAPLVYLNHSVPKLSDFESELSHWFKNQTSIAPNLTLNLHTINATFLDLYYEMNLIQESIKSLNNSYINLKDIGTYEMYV

B1: NT-193, human IgG3 subclass (antibody, V domains shown)
VH: EVQLQQWGAGLLKPSETLSLTCAVYGGSFSGYYWSWIRQPPGKGLEWIGEINHSGSTNYNPSLKSRVTISVDTSKNQFSLKLSSVTAADTAVYYCARGWDLDYYYGMDVWGQGTTVTVSS
VL: DIRMTQSPSAMSASVGDRVTVTCRASQGIGNYLAWFQLKPGKVPKRLIYAASSLQSGVPARFSGGGSGTEFTLTISSLQPEDFATYYCLQHGFLPWTFGQGTKLEIK
B1: no binding (tested: 1000 ng/ml) [1]; no binding (tested: 1000 ng/ml) [2].
